Measured values taken from patent US20170355730A1.
Starred links: 1 amine or outer side, 2 acyl side, 3 side chain; linkers in the order of their positions; H or OH if unused. Non-standard residues stand in square brackets, D forms with d. Primed or numbered codes have the meaning given here. No end group written: not given here. Trimesoyl = O=C(c1cc(C(=O)[*:2])cc(C(=O)[*:3])c1)[*:1]; Phe(3,4-F2) = N[C@@H](Cc1ccc(F)c(F)c1)C(=O)O; Phe(4-Br) = N[C@@H](Cc1ccc(Br)cc1)C(=O)O; Phe(4-Cl) = N[C@@H](Cc1ccc(Cl)cc1)C(=O)O; Phe(4-F) = N[C@@H](Cc1ccc(F)cc1)C(=O)O; 2Nal = N[C@@H](Cc1ccc2ccccc2c1)C(=O)O; Pip′ = L-homoproline (pipecolyl); Dap = NC[C@H](N)C(=O)O; Sar = CNCC(=O)O

B1: peptide 19 (Table 18) (peptide)
peptide: Trimesoyl-P[Sar][dD][Pip′][2Nal]RR[dA][Dap]F[2Nal]RRRR[Dap]K-NH2
modifications: linker (positions not given here) via Trimesoyl; not fully specified (some residues, bridges); printed as bicyclo[Tm-(Pro-Sar-D-Asp-Pip-Nal-Arg-Arg-D-Ala)-Dap-(Phe-Nal-Arg-Arg-Arg-Arg-Dap)]-Lys
B2: peptide 20 (Table 18) (peptide)
peptide: Trimesoyl-P[Sar][dD][Pip′][2Nal]RD[dA][Dap]F[2Nal]RRRR[Dap]K-NH2
modifications: linker (positions not given here) via Trimesoyl; not fully specified (some residues, bridges); printed as bicyclo[Tm-(Pro-Sar-D-Asp-Pip-Nal-Arg-Asp-D-Ala)-Dap-(Phe-Nal-Arg-Arg-Arg-Arg-Dap)]-Lys
B3: peptide 21 (Table 18) (peptide)
peptide: Trimesoyl-[dF][Phe(4-F)][dT][Pip′][2Nal]RS[dF][Dap]F[2Nal]RRRR[Dap]K-NH2
modifications: linker (positions not given here) via Trimesoyl; not fully specified (some residues, bridges); printed as bicyclo[Tm-(D-Phe-Fpa-D-Thr-Pip-Nal-Arg-Ser-D-Phe)-Dap-(Phe-Nal-Arg-Arg-Arg-Arg-Dap)]-Lys
B4: peptide 23 (Table 18) (peptide)
peptide: Trimesoyl-P[Sar][dD][Pip′][2Nal]RR[dV][Dap]F[2Nal]RRRR[Dap]K-NH2
modifications: linker (positions not given here) via Trimesoyl; not fully specified (some residues, bridges); printed as bicyclo[Tm-(Pro-Sar-D-Asp-Pip-Nal-Arg-Arg-D-Val)-Dap-(Phe-Nal-Arg-Arg-Arg-Arg-Dap)]-Lys
B5: peptide 24 (Table 18) (peptide)
peptide: Trimesoyl-P[Sar][dD][Pip′][2Nal]RR[dR][Dap]F[2Nal]RRRR[Dap]K-NH2
modifications: linker (positions not given here) via Trimesoyl; not fully specified (some residues, bridges); printed as bicyclo[Tm-(Pro-Sar-D-Asp-Pip-Nal-Arg-Arg-D-Arg)-Dap-(Phe-Nal-Arg-Arg-Arg-Arg-Dap)]-Lys
B6: peptide 25 (Table 18) (peptide)
peptide: Trimesoyl-P[Sar][dD][Pip′][2Nal]RR[dD][Dap]F[2Nal]RRRR[Dap]K-NH2
modifications: linker (positions not given here) via Trimesoyl; not fully specified (some residues, bridges); printed as bicyclo[Tm-(Pro-Sar-D-Asp-Pip-Nal-Arg-Arg-D-Asp)-Dap-(Phe-Nal-Arg-Arg-Arg-Arg-Dap)]-Lys
B7: peptide 26 (Table 18) (peptide)
peptide: Trimesoyl-[dF][Phe(4-F)][dT][Pip′][2Nal]RG[dA][Dap]F[2Nal]RRRR[Dap]K-NH2
modifications: linker (positions not given here) via Trimesoyl; not fully specified (some residues, bridges); printed as bicyclo[Tm-(D-Phe-4-Fpa-D-Thr-Pip-Nal-Arg-Gly-D-Ala)-Dap-(Phe-Nal-Arg-Arg-Arg-Arg-Dap)]-Lys
B8: peptide 28 (Table 18) (peptide)
peptide: Trimesoyl-[dF]F[dT][Pip′][2Nal]RA[dF][Dap]F[2Nal]RRRR[Dap]K
modifications: linker (positions not given here) via Trimesoyl; not fully specified (some residues, C-terminus, bridges); printed as bicyclo[Tm-(D-Phe-Phe-D-Thr-Pip-Nal-Arg-Ala-D-Phe)-Dap-(Phe-Nal-Arg-Arg-Arg-Arg-Dap)]-Lys
B9: peptide 29 (Table 18) (peptide)
peptide: Trimesoyl-[dF][Phe(3,4-F2)][dT][Pip′][2Nal]RA[dF][Dap]F[2Nal]RRRR[Dap]K
modifications: linker (positions not given here) via Trimesoyl; not fully specified (C-terminus, bridges); printed as bicyclo[Tm-(D-Phe-3,4-diFPhe-D-Thr-Pip-Nal-Arg-Ala-D-Phe)-Dap-(Phe-Nal-Arg-Arg-Arg-Arg-Dap)]-Lys
B10: peptide 30 (Table 18) (peptide)
peptide: Trimesoyl-[dF][Phe(4-Cl)][dT][Pip′][2Nal]RA[dF][Dap]F[2Nal]RRRR[Dap]K
modifications: linker (positions not given here) via Trimesoyl; not fully specified (C-terminus, bridges); printed as bicyclo[Tm-(D-Phe-4-ClPhe-D-Thr-Pip-Nal-Arg-Ala-D-Phe)-Dap-(Phe-Nal-Arg-Arg-Arg-Arg-Dap)]-Lys
B11: peptide 31 (Table 18) (peptide)
peptide: Trimesoyl-[dF]H[dT][Pip′][2Nal]RA[dF][Dap]F[2Nal]RRRR[Dap]K
modifications: linker (positions not given here) via Trimesoyl; not fully specified (C-terminus, bridges); printed as bicyclo[Tm-(D-Phe-His-D-Thr-Pip-Nal-Arg-Ala-D-Phe)-Dap-(Phe-Nal-Arg-Arg-Arg-Arg-Dap)]-Lys
B12: peptide 32 (Table 18) (peptide)
peptide: Trimesoyl-[dF][Phe(4-Br)][dT][Pip′][2Nal]RA[dF][Dap]F[2Nal]RRRR[Dap]K
modifications: linker (positions not given here) via Trimesoyl; not fully specified (C-terminus, bridges); printed as bicyclo[Tm-(D-Phe-4-BrPhe-D-Thr-Pip-Nal-Arg-Ala-D-Phe)-Dap-(Phe-Nal-Arg-Arg-Arg-Arg-Dap)]-Lys
B13: peptide 34 (Table 18) (peptide)
peptide: Trimesoyl-[dV][Phe(4-F)][dT][Pip′][2Nal]RA[dA][Dap]F[2Nal]RRRR[Dap]K
modifications: linker (positions not given here) via Trimesoyl; not fully specified (C-terminus, bridges); printed as bicyclo[Tm-(D-Val-4-Fpa-D-Thr-Pip-Nal-Arg-Ala-D-Ala)-Dap-(Phe-Nal-Arg-Arg-Arg-Arg-Dap)]-Lys

Target: Pin1 (Example 6, construct not stated) (human) (UniProt Q13526)
Assay: fluorescence anisotropy

| Binder | Kd |
| --- | --- |
| B1 | 0.72 µM |
| B2 | 3.19 µM |
| B3 | 0.57 µM |
| B4 | 1.92 µM |
| B5 | 1.31 µM |
| B6 | 4.6 µM |
| B7 | 0.74 µM |
| B8 | 1.26 µM |
| B9 | 0.41 µM |
| B10 | 0.78 µM |
| B11 | 1.68 µM |
| B12 | 1.78 µM |
| B13 | 1.07 µM |
